B1: Histone-lysine N-methyltransferase SETD2, residues 2382 to 2430; numbered along this chain, Q9BYW2 (parent)
chain: SPPKPKTIVLPPNWKTARDPEGKIYYYHVITRQTQWDPPTWESPGDDAS

Variants of: B1
Test: abundance fitness (aPCA) (normalised: wild type 0, dead -1); higher = more abundant; growth selection in yeast, the domain comes from the species named
Settings: Homo sapiens

Abundance fitness of substitutions, site by site:
T40: S 0.062; R -0.019; Y -0.123; Q 0.277; H 0.155; A 0.15; F -0.251
Y26: L -0.878; T -0.637; N -0.517; C -0.853; M -0.694; F -0.315; S -0.786; V -0.585; E -0.981; W -0.498; H -0.618; K -0.655; D -0.553; G -0.934; I -0.782; P -0.765; Q -0.777
P44: K -0.128; M -0.016; T -0.103; H 0.036; N -0.196; F -0.654; S -0.166; V -0.263; G -0.128; E -0.096; D -0.108; W -0.283; I -0.452; A -0.115; R -0.031; C -0.448; Q -0.067
H28: K -0.971; D -0.213; L -1.09; M -1.01; V -0.991; F -0.94; W -1.05; G -1.01; C -0.792; Y -0.6; E -0.689; R -1.03; A -1.06; N 0.023; Q -0.64; S -0.767
D37: K -0.061; W -0.255; Q -0.235; I 0.005; L -0.159; Y -0.314; A -0.049; V 0.013; F -0.68; C -0.07; M -0.184; T 0.117; R -0.252; P -0.48; E 0.049; N -0.298
G45: F 0.019; M -0.082; P 0.233; C -0.002; A 0.087; L 0.076; H -0.73; E 0.02; I 0.125; D -0.061; K 0.006
Q33: V -0.251; N -0.117; D -0.185; M -0.614; R -0.318; I -0.551; W -0.751; H -0.578; T -0.13; A -0.149; L -0.411; C -0.251; F -0.906; P -0.904; G -0.798; E 0.099; K -0.401
T31: P -0.785; E -0.735; W -1.06; S -0.131; G -0.927; Q -0.627; K -0.651; D -0.724; N -0.798; I -0.945; M -0.862; Y -0.831; R -0.502; H -0.761; L -0.748; A -0.742
R32: F -0.691; V -1.01; P -0.617; D -0.027; H -0.131; L -0.315; T -1.01; C -0.357; M -0.15; G -0.173; Y -0.215; Q -0.022; I -0.997; W -0.848; A -0.304; E -0.197; N 0.031; K 0.13; S -0.363
V29: S -0.002; M 0.079; H -0.208; R -0.428; A 0.011; E 0.139; L -0.287; T 0.145; Y -0.258; N -0.644; W -0.564; C -0.074; K -0.255; Q -0.018; G -0.309
E42: C -0.303; P 0.087; Q -0.291; F 0.124; R -0.184; L -0.412; A -0.148; M -0.457; W -0.172; V -0.141; N -0.173; S 0.011; T -0.341; K -0.074; D -0.504; G -0.053
